Columns and labels:
Format in all cases: biochemical, human
[1] = substrate: COc1ccc2cc(C=O)ccc2c1; assay: Kinetics of enzymatic reduction of methoxynaphthaldehydes by Class III ADH; conditions: other: pH 7.0, 50 μM NADH, 25.0 °C
[2] = substrate: COc1ccc(C=O)c2ccccc12; assay: Kinetics of enzymatic reduction of methoxynaphthaldehydes by αβ1 ADH; conditions: other: pH 7.0, 50 μM NADH, spectrophotometric, 25.0 °C
Method: (§1) Standard assays for ethanol oxidation activity (Dalziel, 1957, Acta Chem Scand 11:1706-23) were carried out on a Cary 219 spectrophotometer interfaced with an Apple IIe microcomputer, using software provided by Varian Associates. The reaction mixture contained 2.5 mM NAD^+ in 0.1M glycine-NaOH buffer. pH 10.0, and 33 mM or 0.2M ethanol for Class I and Class II ADH, respectively.
(§2) Aldehyde reduction was monitored by following the decrease of absorption at 340 nm in 40 mM Mes buffer, pH 7.1. in the presence of saturating NADH, 50 μM for Class I and 100 μM for Class II. […] Initial reaction rates were measured and kinetic parameters determined by conventional procedures as described by Segel, 1975, Enzyme Kinetics, pp. 591-597, Wiley, N.Y.
(§3) All reaction mixtures (3 ml total volume) were prepared directly in 1 cm pathlength, 4 ml fluorometric cuvettes by adding 150 μl of the 300 μM substrate solution (e.g substrate IA or IIA) 100 μl of the 1 mM NADH solution (prepared as in part 5 above) and 2.69 ml of assay buffer (0.1M phosphate, pH 7.6). After thermal equilibration (25° C.) for 5 minutes, 60 μl of isozyme sample (either serum or purified ADH isozymes) was added to the cuvette.
(§4) The linear increase of fluorescence was then recorded for 1-10 minutes, until 0.03-1 μM of substrate was consumed. Larger substrate consumption was not found to be desirable (described in subpart (c) below). After this period the instrument sensitivity setting was reduced 10-30 fold, the signal compensated once again by zero suppression (see part 6 above), and 60 μl of 200-400 μM product (e.g., product IB or IIB) was added to provide an internal standard. The added product fluorescence intensity was then measured Fluorescence measurements were optimized for samples with low activity (<1 nM/minute). […] Rates measured in the presence of the 0.2 mM ADH inhibitors. […]
(§5) The rates of aldehyde reduction, determined as initial velocities (V) and expressed in units of nM/minute, were calculated according to: [formula] where the quantity in parentheses is the slope of the linear fluorescence increase calculated from the quantities Ft and FO, the fluorescence at time t and at the beginning of the reaction, respectively. Cst is the concentration of the product used as a standard added to the cuvette after the initial rate had been measured and Fst is the fluorescence intensity of the added product
(§6) Additionally the reaction rates for these isozymes were compared to those measured by the standard assay for ethanol oxidation (see part 7 above) at pH 10.0 the optimum for oxidation of ethanol by ADH. The rate of IA reduction for all Class I isozymes except the β1 β1 form is 1.5- to 4-fold faster than that of ethanol oxidation as measured by the conventional ethanol oxidation assay. […]

[3] = substrate: COc1ccc2cc(C=O)ccc2c1; assay: as above; conditions: other: pH 7.0, 50 μM NADH, spectrophotometric, 25.0 °C
Method: as §1, §2, §3, §4, §5, §6

[4] = substrate: COc1ccc(C=O)c2ccccc12; assay: Kinetics of enzymatic reduction of methoxynaphthaldehydes by αγ1 ADH; conditions: other: pH 7.0, 50 μM NADH, fluorometric, 25.0 °C
[5] = substrate: COc1ccc2cc(C=O)ccc2c1; assay: as above; conditions: other: pH 7.0, 50 μM NADH, fluorometric, 25.0 °C
[6] = substrate: COc1ccc(C=O)c2ccccc12; assay: Kinetics of enzymatic reduction of methoxynaphthaldehydes by γ1γ1 ADH; conditions: other: pH 7.0, 50 μM NADH, fluorometric, 25.0 °C
[7] = substrate: COc1ccc2cc(C=O)ccc2c1; assay: as above; conditions: other: pH 7.0, 50 μM NADH, fluorometric, 25.0 °C
[8] = substrate: COc1ccc(C=O)c2ccccc12; assay: Kinetics of enzymatic reduction of methoxynaphthaldehydes by Class II ADH; conditions: 25.0 °C
[9] = substrate: COc1ccc2cc(C=O)ccc2c1; assay: as above; conditions: other: pH 7.0, 50 μM NADH; spectrophotometric; pH 7.0; 25.0 °C
[10] = substrate: COc1ccc(C=O)c2ccccc12; assay: Kinetics of enzymatic reduction of methoxynaphthaldehydes by β1γ1 ADH; conditions: other: pH 7.0, 50 μM NADH, fluorometric, 25.0 °C
[11] = substrate: COc1ccc2cc(C=O)ccc2c1; assay: as above; conditions: other: pH 7.0, 50 μM NADH, fluorometric, 25.0 °C
[12] = other: pH 7.0, 50 μM NADH, spectrophotometric, pH 7.0

B1: Class III (.chi.) ADH (Homo sapiens) (protein)
chain: MANEVIKCKAAVAWEAGKPLSIEEIEVAPPKAHEVRIKIIATAVCHTDAYTLSGADPEGCFPVILGHEGAGIVESVGEGVTKLKAGDTVIPLYIPQCGECKFCLNPKTNLCQKIRVTQGKGLMPDGTSRFTCKGKTILHYMGTSTFSEYTVVADISVAKIDPLAPLDKVCLLGCGISTGYGAAVNTAKLEPGSVCAVFGLGGVGLAVIMGCKVAGASRIIGVDINKDKFARAKEFGATECINPQDFSKPIQEVLIEMTDGGVDYSFECIGNVKVMRAALEACHKGWGVSVVVGVAASGEEIATRPFQLVTGRTWKGTAFGGWKSVESVPKLVSEYMSKKIKVDEFVTHNLSFDEINKAFELMHSGKSIRTVVKI
- kcat/Km [1]: 830 M⁻¹ s⁻¹

B2: αβ1 ADH (Class I) (Homo sapiens) (protein)
chain 1: STAGKVIKCKAAVLWELKKPFSIEEVEVAPPKAHEVRIKMVAVGICGTDDHVVSGTMVTPLPVILGHEAAGIVESVGEGVTTVKPGDKVIPLAIPQCGKCRICKNPESNYCLKNDVSNPQGTLQDGTSRFTCRRKPIHHFLGISTFSQYTVVDENAVAKIDAASPLEKVCLIGCGFSTGYGSAVNVAKVTPGSTCAVFGLGGVGLSAIMGCKAAGAARIIAVDINKDKFAKAKELGATECINPQDYKKPIQEVLKEMTDGGVDFSFEVIGRLDTMMASLLCCHEACGTSVIVGVPPDSQNLSMNPMLLLTGRTWKGAILGGFKSKECVPKLVADFMAKKFSLDALITHVLPFEKINEGFDLLHSGKSIRTILMF
chain 2: STAGKVIKCKAAVLWEVKKPFSIEDVEVAPPKAYEVRIKMVAVGICHTDDHVVSGNLVTPLPVILGHEAAGIVESVGEGVTTVKPGDKVIPLFTPQCGKCRVCKNPESNYCLKNDLGNPRGTLQDGTRRFTCRGKPIHHFLGTSTFSQYTVVDENAVAKIDAASPLEKVCLIGCGFSTGYGSAVNVAKVTPGSTCAVFGLGGVGLSAVMGCKAAGAARIIAVDINKDKFAKAKELGATECINPQDYKKPIQEVLKEMTDGGVDFSFEVIGRLDTMMASLLCCHEACGTSVIVGVPPASQNLSINPMLLLTGRTWKGAVYGGFKSKEGIPKLVADFMAKKFSLDALITHVLPFEKINEGFDLLHSGKSIRTVLTF
notes: beta1 allele (ADH1B*1, Arg47 and Arg369 in mature count)
- Km [2]: 8.5 µM
- kcat [2]: 7.5 s⁻¹
- Km [3]: 11.5 µM
- kcat [3]: 2.67 s⁻¹

B3: αγ1 ADH (Class I) (Homo sapiens) (protein)
chain 1: B2 chain 1
chain 2: STAGKVIKCKAAVLWELKKPFSIEEVEVAPPKAHEVRIKMVAAGICRSDEHVVSGNLVTPLPVILGHEAAGIVESVGEGVTTVKPGDKVIPLFTPQCGKCRICKNPESNYCLKNDLGNPRGTLQDGTRRFTCSGKPIHHFVGVSTFSQYTVVDENAVAKIDAASPLEKVCLIGCGFSTGYGSAVKVAKVTPGSTCAVFGLGGVGLSVVMGCKAAGAARIIAVDINKDKFAKAKELGATECINPQDYKKPIQEVLKEMTDGGVDFSFEVIGRLDTMMASLLCCHEACGTSVIVGVPPDSQNLSINPMLLLTGRTWKGAIFGGFKSKESVPKLVADFMAKKFSLDALITNILPFEKINEGFDLLRSGKSIRTVLTF
notes: gamma1 allele (ADH1C*1, Arg271 and Ile349 in mature count)
- Km [4]: 2.8 µM
- kcat [4]: 8.33 s⁻¹
- Km [5]: 0.58 µM
- kcat [5]: 2.5 s⁻¹

B4: γ1 γ1 ADH (Class I) (Homo sapiens) (protein)
chain: B3 chain 2
notes: as for B3
- Km [6]: 2.30 µM
- kcat [6]: 10.2 s⁻¹
- Km [7]: 0.35 µM
- kcat [7]: 1.83 s⁻¹

B5: Class II (π) ADH (Homo sapiens) (protein)
chain: MGTKGKVIKCKAAIAWEAGKPLCIEEVEVAPPKAHEVRIQIIATSLCHTDATVIDSKFEGLAFPVIVGHEAAGIVESIGPGVTNVKPGDKVIPLYAPLCRKCKFCLSPLTNLCGKISNLKSPASDQQLMEDKTSRFTCKGKPVYHFFGTSTFSQYTVVSDINLAKIDDDANLERVCLLGCGFSTGYGAAINNAKVTPGSTCAVFGLGGVGLSAVMGCKAAGASRIIGIDINSEKFVKAKALGATDCLNPRDLHKPIQEVIIELTKGGVDFALDCAGGSETMKAALDCTTAGWGSCTFIGVAAGSKGLTIFPEELIIGRTINGTFFGGWKSVDSIPKLVTDYKNKKFNLDALVTHTLPFDKISEAFDLMNQGKSVRTILIF
- kcat ([8]; other: Class II): 0.667 s⁻¹
- Km [8, 12]: 20.0 µM
- kcat [8, 12]: 0.833 s⁻¹
- Km [9]: 2.6 µM
- kcat [9]: 25 s⁻¹

B6: β1 γ1 ADH (Class I) (Homo sapiens) (protein)
chain 1: MSTAGKVIKCKAAVLWEVKKPFSIEDVEVAPPKAYEVRIKMVAVGICHTDDHVVSGNLVTPLPVILGHEAAGIVESVGEGVTTVKPGDKVIPLFTPQCGKCRVCKNPESNYCLKNDLGNPRGTLQDGTRRFTCRGKPIHHFLGTSTFSQYTVVDENAVAKIDAASPLEKVCLIGCGFSTGYGSAVNVAKVTPGSTCAVFGLGGVGLSAVMGCKAAGAARIIAVDINKDKFAKAKELGATECINPQDYKKPIQEVLKEMTDGGVDFSFEVIGRLDTMMASLLCCHEACGTSVIVGVPPASQNLSINPMLLLTGRTWKGAVYGGFKSKEGIPKLVADFMAKKFSLDALITHVLPFEKINEGFDLLHSGKSIRTVLTF
chain 2: MSTAGKVIKCKAAVLWELKKPFSIEEVEVAPPKAHEVRIKMVAAGICRSDEHVVSGNLVTPLPVILGHEAAGIVESVGEGVTTVKPGDKVIPLFTPQCGKCRICKNPESNYCLKNDLGNPRGTLQDGTRRFTCSGKPIHHFVGVSTFSQYTVVDENAVAKIDAASPLEKVCLIGCGFSTGYGSAVKVAKVTPGSTCAVFGLGGVGLSVVMGCKAAGAARIIAVDINKDKFAKAKELGATECINPQDYKKPIQEVLKEMTDGGVDFSFEVIGRLDTMMASLLCCHEACGTSVIVGVPPDSQNLSINPMLLLTGRTWKGAIFGGFKSKESVPKLVADFMAKKFSLDALITNILPFEKINEGFDLLRSGKSIRTVLTF
notes: beta1 (ADH1B*1) and gamma1 (ADH1C*1) alleles
- Km [10]: 0.60 µM
- kcat [10]: 4.42 s⁻¹
- Km [11]: 0.40 µM
- kcat [11]: 2.83 s⁻¹

Source: US5162203A, “Methods of measuring isozymes and isozyme classes of alcohol dehydrogenase” (President and Fellows of Harvard College, priority 1989, dated 1992)
